# Test system: Escherichia coli TOP10
# Assay: shrunken log2 fold change of peptide-encoding DNA abundance (4.5 h post-induction vs induction); higher = less antimicrobial activity (less host growth inhibition)
# Details: time post-induction: 4.5 h; library: site-saturation at positions 5, 18, 19, 20
# 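Note: peptides expressed intracellularly from a pBAD plasmid library in pooled LB shake-flask culture, induced with 0.3% L-arabinose, DNA abundance read by NGS, three biological replicates, DESeq2 with apeglm shrinkage.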
row,Sequence,shrunken log2 fold change
1,RRIRLRPPRLPRPRPRPGERPRP,0.33
2,RRIRGRPPRLPRPRPRPRTPPRP,1.18
3,RRIRRRPPRLPRPRPRPMCGPRP,-0.0233
4,RRIRCRPPRLPRPRPRPEKQPRP,-0.0123
5,RRIRLRPPRLPRPRPRPKPYPRP,0.00713
6,RRIRRRPPRLPRPRPRPLPMPRP,0.541
7,RRIRPRPPRLPRPRPRPRVSPRP,0.00758
8,RRIRRRPPRLPRPRPRPAPSPRP,0.809
9,RRIRGRPPRLPRPRPRPQTPPRP,1.36
10,RRIRWRPPRLPRPRPRPVPLPRP,0.00691
11,RRIRHRPPRLPRPRPRPFRCPRP,-0.556
12,RRIRDRPPRLPRPRPRPFHMPRP,0.0426
13,RRIRSRPPRLPRPRPRPMIQPRP,0.0624
14,RRIRIRPPRLPRPRPRPFEYPRP,-0.709
15,RRIRIRPPRLPRPRPRPFHRPRP,-0.152
16,RRIRHRPPRLPRPRPRPNSLPRP,-0.0817
17,RRIRVRPPRLPRPRPRPWVGPRP,-0.0497
18,RRIRIRPPRLPRPRPRPNKCPRP,-0.438
19,RRIRLRPPRLPRPRPRPVPEPRP,0.161
20,RRIRNRPPRLPRPRPRPYWGPRP,0.0237
21,RRIRLRPPRLPRPRPRPMKQPRP,0.132
22,RRIRFRPPRLPRPRPRPPWIPRP,0.3

row,Sequence,shrunken log2 fold change
1,RRIRTRPPRLPRPRPRPHYNPRP,-0.75
2,RRIRDRPPRLPRPRPRPNTMPRP,-0.167
3,RRIRARPPRLPRPRPRPKVIPRP,0.116
4,RRIRSRPPRLPRPRPRPRINPRP,-0.301
5,RRIRFRPPRLPRPRPRPHTKPRP,-0.0159
6,RRIRRRPPRLPRPRPRPKCPPRP,0.278
7,RRIRPRPPRLPRPRPRPFWSPRP,-0.143
8,RRIRWRPPRLPRPRPRPTGSPRP,0.123
9,RRIRRRPPRLPRPRPRPEQWPRP,-0.173
10,RRIRLRPPRLPRPRPRPWLYPRP,-0.541
11,RRIRMRPPRLPRPRPRPDPLPRP,0.255
12,RRIRDRPPRLPRPRPRPVTFPRP,-0.0135
13,RRIRNRPPRLPRPRPRPVTGPRP,-0.362
14,RRIRYRPPRLPRPRPRPCTEPRP,-0.531
15,RRIRMRPPRLPRPRPRPWYMPRP,-0.147
16,RRIRARPPRLPRPRPRPLEGPRP,0.564
17,RRIRVRPPRLPRPRPRPQYRPRP,-0.134
18,RRIRLRPPRLPRPRPRPTFLPRP,-0.153
19,RRIRPRPPRLPRPRPRPAEYPRP,-0.565
20,RRIRQRPPRLPRPRPRPVRSPRP,0.32
21,RRIRKRPPRLPRPRPRPRHKPRP,0.458
22,RRIRRRPPRLPRPRPRPTAGPRP,0.109

row,Sequence,shrunken log2 fold change
1,RRIRARPPRLPRPRPRPQFDPRP,0.545
2,RRIRQRPPRLPRPRPRPCVRPRP,-0.154
3,RRIRERPPRLPRPRPRPCPKPRP,-0.39
4,RRIRYRPPRLPRPRPRPYAFPRP,-0.0129
5,RRIRPRPPRLPRPRPRPQENPRP,-0.125
6,RRIRNRPPRLPRPRPRPGSTPRP,-0.145
7,RRIRVRPPRLPRPRPRPTHRPRP,0.662
8,RRIRKRPPRLPRPRPRPNEEPRP,-1.35e-05
9,RRIRCRPPRLPRPRPRPQSHPRP,-0.304
10,RRIRTRPPRLPRPRPRPGVGPRP,0.546
11,RRIRARPPRLPRPRPRPEFKPRP,0.0365
12,RRIRVRPPRLPRPRPRPWYVPRP,-0.971
13,RRIRNRPPRLPRPRPRPNVQPRP,-0.128
14,RRIRLRPPRLPRPRPRPFSVPRP,-0.323
15,RRIRCRPPRLPRPRPRPLYTPRP,-0.765
16,RRIRCRPPRLPRPRPRPDQKPRP,0.0192
17,RRIRRRPPRLPRPRPRPLCAPRP,0.646
18,RRIRKRPPRLPRPRPRPGHQPRP,-0.0847
19,RRIRSRPPRLPRPRPRPVLKPRP,-0.0386
20,RRIRHRPPRLPRPRPRPHTYPRP,-0.79
21,RRIRSRPPRLPRPRPRPMDRPRP,-0.155
22,RRIRKRPPRLPRPRPRPKWMPRP,-0.168

row,Sequence,shrunken log2 fold change
1,RRIRQRPPRLPRPRPRPKADPRP,0.143
2,RRIRDRPPRLPRPRPRPTAIPRP,0.394
3,RRIRPRPPRLPRPRPRPRVRPRP,0.217
4,RRIRSRPPRLPRPRPRPQSEPRP,-0.0306
5,RRIRIRPPRLPRPRPRPFFHPRP,-0.575
6,RRIRERPPRLPRPRPRPWNGPRP,0.208
7,RRIRVRPPRLPRPRPRPMYPPRP,-0.413
8,RRIRLRPPRLPRPRPRPAWNPRP,0.133
9,RRIRERPPRLPRPRPRPETNPRP,-0.000368
10,RRIRGRPPRLPRPRPRPDFQPRP,1.01
11,RRIRLRPPRLPRPRPRPAYGPRP,-0.0437
12,RRIRERPPRLPRPRPRPTDKPRP,-0.234
13,RRIRVRPPRLPRPRPRPNTTPRP,-0.227
14,RRIRGRPPRLPRPRPRPDNPPRP,0.0274
15,RRIRMRPPRLPRPRPRPEITPRP,3.07
16,RRIRIRPPRLPRPRPRPEFRPRP,0.239
17,RRIRARPPRLPRPRPRPQMTPRP,0.0889
18,RRIRSRPPRLPRPRPRPFSPPRP,-0.195
19,RRIRNRPPRLPRPRPRPGCAPRP,0.426
20,RRIRLRPPRLPRPRPRPYAHPRP,-0.0393
21,RRIRKRPPRLPRPRPRPYYKPRP,-0.445
22,RRIRHRPPRLPRPRPRPCEPPRP,0.195

row,Sequence,shrunken log2 fold change
1,RRIRIRPPRLPRPRPRPCGCPRP,-0.248
2,RRIRQRPPRLPRPRPRPMWSPRP,0.0215
3,RRIRARPPRLPRPRPRPTKYPRP,-0.114
4,RRIRFRPPRLPRPRPRPPLYPRP,-0.0579
5,RRIRDRPPRLPRPRPRPLHNPRP,-0.338
6,RRIRGRPPRLPRPRPRPCRVPRP,-0.0297
7,RRIRLRPPRLPRPRPRPHWQPRP,0.0281
8,RRIRGRPPRLPRPRPRPYTTPRP,-0.083
9,RRIRLRPPRLPRPRPRPADIPRP,-0.00142
10,RRIRCRPPRLPRPRPRPVRMPRP,-0.053
11,RRIRFRPPRLPRPRPRPRLEPRP,0.392
12,RRIRPRPPRLPRPRPRPVVGPRP,0.212
13,RRIRDRPPRLPRPRPRPNAHPRP,-0.0544
14,RRIRCRPPRLPRPRPRPDGHPRP,-0.00753
15,RRIRCRPPRLPRPRPRPTSWPRP,0.0567
16,RRIRPRPPRLPRPRPRPQFTPRP,-0.285
17,RRIRDRPPRLPRPRPRPNPCPRP,-0.328
18,RRIRYRPPRLPRPRPRPTAKPRP,0.0338
19,RRIRLRPPRLPRPRPRPRDDPRP,0.108
20,RRIRTRPPRLPRPRPRPAQYPRP,0.105
21,RRIRWRPPRLPRPRPRPRSTPRP,0.551

# Reference: the supplement of paper PMC9112550, “Optimization of the antimicrobial peptide Bac7 by deep mutational scanning” (BMC Biology, 2022)
